One assay has as its target T1, human PD-L2 protein (human, UniProt Q9BQ51 20-220, limits assumed).
T1 construct: also called analyte (PD-L2)
T1 sequence: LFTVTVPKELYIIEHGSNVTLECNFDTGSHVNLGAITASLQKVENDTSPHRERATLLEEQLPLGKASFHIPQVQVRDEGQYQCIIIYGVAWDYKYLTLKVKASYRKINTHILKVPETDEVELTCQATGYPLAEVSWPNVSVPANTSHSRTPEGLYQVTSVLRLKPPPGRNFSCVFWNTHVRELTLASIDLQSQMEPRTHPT
As to the kind of experiment: MFI against Ab nM; legend: binding to human PD-L2 protein, maximum fluorescence intensity, ForteBio Octet. The procedure:
Antibody Screening and Characterization. Antibody candidates generated from the presentation methods described above were tested for the capacity to bind to PD-L2 and block its binding to PD-1. 5 µg/mL of antibody was bound to CHO-PD-L2 cells and then recombinant PD-1 (RnD Systems) labelled with Alexa 532 (ThermoFisher) was added for 1 hour. PD-1 maximum fluorescence intensity was measured. Blockade of PD-1 binding was measured by reduction in Alexa 532 fluorescence by flow cytometry. […] The binding and release of the analyte (PD-L2) are recorded by the Octet instrument in real time and then used to calculate the KD, $Kon$, and $Kdis$; results are derived from 2:1 Global Fit Modeling with reference well subtraction. […]
PD-L2 antibodies avidly bind human PD-L2. […] Antibody subclones were immobilized on Anti-Human Fc Capture (AHC) Biosensors at 100 nM (15 μg/mL), and human PD-L2 protein association and dissociation was tested in dilution series from 30-0.37 nM (FIGS. 4A-B).

Another assay deals with T2, Mouse PD-L2-Fc (mouse, UniProt Q9WUL5 20-219).
T2 construct: not shown: Fc part
T2 sequence (looked up): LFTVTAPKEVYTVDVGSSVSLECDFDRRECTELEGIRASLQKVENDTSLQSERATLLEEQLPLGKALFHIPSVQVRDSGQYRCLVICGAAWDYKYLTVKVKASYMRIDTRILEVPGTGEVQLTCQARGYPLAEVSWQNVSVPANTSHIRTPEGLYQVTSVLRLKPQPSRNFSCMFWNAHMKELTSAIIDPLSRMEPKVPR
As to the kind of experiment: ForteBio Octet, IgG KD, Mouse PD-L2-Fc, avid.

Assay [1] concerns the target T3, PD-L2 on CHO-PD-L2 cells (human, UniProt Q9BQ51 20-273).
T3 sequence: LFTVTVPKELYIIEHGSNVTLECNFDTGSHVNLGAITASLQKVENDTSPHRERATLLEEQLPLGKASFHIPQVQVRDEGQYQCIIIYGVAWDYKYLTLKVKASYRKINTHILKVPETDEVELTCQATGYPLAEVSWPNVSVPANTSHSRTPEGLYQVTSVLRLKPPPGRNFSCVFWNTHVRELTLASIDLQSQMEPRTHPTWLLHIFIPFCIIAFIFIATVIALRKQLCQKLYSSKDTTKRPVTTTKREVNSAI
As to the kind of experiment: cell-based or functional assay.

Assay [2] concerns the target T3, PD-L2 on CHO-PD-L2 cells. As to the kind of experiment: cell-based or functional assay. This is another data set of the same source.
The target of assay [3] is T4, Human PD-L2-Fc (human, UniProt Q9BQ51 20-220).
T4 construct: also called Fc fusion antigen; not shown: Fc part
T4 sequence: T1 sequence
As to the kind of experiment: ForteBio Octet, IgG KD, Human PD-L2-Fc, avid. A general note: In BLI a coated tip is dipped into the sample, and binding shifts an interference pattern.

The target in the next assay is T5, Cyno PD-L2-Fc (cyno, UniProt A0A2K5U5Z4 20-220).
T5 construct: not shown: Fc part
T5 sequence: T1 sequence with V19A, P62S, S67L, V139I, P166H, T178A, H179Q, M194I
As to the kind of experiment: ForteBio Octet, IgG KD, Cyno PD-L2-Fc, avid. As to the method:
(§1) ForteBio K_D measurements—ForteBio affinity measurements were performed on an Octet RED384 generally as previously described (see, e.g., Estep et al., High throughput solution-based measurement of antibody-antigen affinity and epitope binning. Mabs 5(2), 270-278 (2013)). Briefly, ForteBio affinity measurements were performed by loading IgGs on-line onto AHQ sensors. Sensors were equilibrated off-line in assay buffer for 30 min and then monitored on-line for 60 seconds for baseline establishment. Sensors with loaded IgGs were exposed to 100 nM antigen for 3 minutes, and afterwards were transferred to assay buffer for 3 min for off-rate measurement. For monovalent affinity assessment Fabs were used instead of IgGs. For this assessment the unbiotinylated Fc fusion antigen was loaded on-line onto the AHQ sensors. Sensors were equilibrated off-line in assay buffer for 30 min and then monitored on-line for 60 seconds for baseline establishment. Sensors with loaded antigen were exposed to 100 nM Fab for 3 minutes, and afterwards they were transferred to assay buffer for 3 min for off-rate measurement. All kinetics were analyzed using the 1:1 binding model.

Assay [4] addresses T3, PD-L2 on CHO-PD-L2 cells. As to the kind of experiment: cell surface binding, panel 'Binding Assay PD-L2', MFI against Ab nM (flow cytometry on PD-L2 expressing cells). In general terms: Flow cytometry measures light scatter and fluorescence of single cells or particles in a stream.
Assay [5] addresses T3, PD-L2 on CHO-PD-L2 cells. Put plainly: cell-based or functional assay. This is another data set of the same source.
The target of the next assay is T6, Human PD-L2-HIS (human, UniProt Q9BQ51 20-220).
T6 construct: also called HIS-tagged protein (human PD-L2); not shown: HIS tag
T6 sequence: T1 sequence
Put plainly: IgG KD, Human PD-L2-HIS, monovalent (method not named in the table: ForteBio or MSD-SET).

The target of assay [6] is T4, Human PD-L2-Fc. As to the kind of experiment: ForteBio Octet, Fab KD, Human PD-L2-Fc on sensor, monovalent. As to the method: as §1
In assay [7] the target is T3, PD-L2 on CHO-PD-L2 cells. As to the kind of experiment: cell-based or functional assay. The source holds these as a separate data set.
Assay [8] concerns the target T3, PD-L2 on CHO-PD-L2 cells. Put plainly: competition assay by flow cytometry: antibody against Biotin-rhPD-1-Fc on PD-L2 expressing cells, Streptavidin-APC; axis 'Antibodies µg (logX)'.

Residue numbers refer to the chain shown, from its start.

B1: ADI-20810 (anti-PD-L2 antibody 20810), IgG (antibody, V domains shown)
VH: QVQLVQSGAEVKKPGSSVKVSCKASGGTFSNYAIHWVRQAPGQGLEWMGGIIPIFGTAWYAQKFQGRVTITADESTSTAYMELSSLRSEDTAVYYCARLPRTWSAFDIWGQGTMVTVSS
VL: EIVLTQSPATLSLSPGERATLSCRASQSVSSYLAWYQQKPGQAPRLLIYDASNRATGIPARFSGSGSGTDFTLTISSLEPEDFAVYYCQQVVTLPPTFGGGTKVEIK
notes: Tested as full-length IgG
In general, EC50 (read off the curve) refers to the concentration at which the effect is half-maximal. A low value points to higher potency in that assay. As a reminder, the Kd is a measure of binding affinity in units of concentration. A low value points to a tighter complex. As to B1, the “EC50 (read off the curve)” value with human PD-L2 protein is ~0.7 nM; in the assay with PD-L2 on CHO-PD-L2 cells [1] it was ~0.4 nM; with PD-L2 on CHO-PD-L2 cells [4], ~0.7 nM; with PD-L2 on CHO-PD-L2 cells [5] it was ~0.2 nM. Moreover, the Kd with Mouse PD-L2-Fc came to 0.503 nM; in the assay with Human PD-L2-Fc [3], 0.331 nM; with Cyno PD-L2-Fc, 0.3 nM; in the assay with Human PD-L2-HIS it was 0.0025 nM. In the assay with PD-L2 on CHO-PD-L2 cells [2], the “IC50 (Promega PD-1:PD-L2 bioassay, luciferase)” value amounted to 0.41 nM.

B2: ADI-20810 Fab (Fab, V domains shown)
VH: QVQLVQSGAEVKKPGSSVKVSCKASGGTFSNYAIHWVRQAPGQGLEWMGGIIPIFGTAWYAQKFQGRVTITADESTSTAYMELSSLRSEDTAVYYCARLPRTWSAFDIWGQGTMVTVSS
VL: B1 VL
In the case of B2, the Kd with Human PD-L2-Fc [6] came to 0.267 nM.

B3: ADI-20811 Fab (Fab, V domains shown)
VH: QVQLVQSGAEVKKPGSSVKVSCKASGGTFSSAAIHWVRQAPGQGLEWMGGIIPIFGLAQYAQKFQGRVTITADESTSTAYMELSSLRSEDTAVYYCARLPRTWSAFDIWGQGTMVTVSS
VL: B1 VL
Molecule B3 came in with a Kd with Human PD-L2-Fc [6] of 0.21 nM.

B4: ADI-20811 (anti-PD-L2 antibody 20811), IgG (antibody, V domains shown)
VH: B3 VH
VL: B1 VL
notes: Tested as full-length IgG
As for B4, the figures for the “EC50 (read off the curve)” value in the assay with human PD-L2 protein and with PD-L2 on CHO-PD-L2 cells [5] were ~0.3 nM and ~0.2 nM, respectively. Further, the Kd came to 0.259 nM with Mouse PD-L2-Fc, 0.248 nM in the assay with Human PD-L2-Fc [3], 0.231 nM in the assay with Cyno PD-L2-Fc and 0.0085 nM with Human PD-L2-HIS. Besides, the “IC50 (Promega PD-1:PD-L2 bioassay, luciferase)” value with PD-L2 on CHO-PD-L2 cells [2] is 0.24 nM.

B5: ADI-20816 (anti-PD-L2 antibody 20816), IgG (antibody, V domains shown)
VH: QVQLVQSGAEVKKPGSSVKVSCKASGGTFSSYLIAWVRQAPGQGLEWMGGIIPHFGVANYAQKFQGRVTITADESTSTAYMELSSLRSEDTAVYYCARVPQYHGYFDLWGRGTLVTVSS
VL: DIQMTQSPSSVSASVGDRVTITCRASQGISSWLAWYQQKPGKAPKLLIYAASNLQSGVPSRFSGSGSGTDFTLTISSLQPEDFATYYCQQGNSFPTFGGGTKVEIK
notes: Tested as full-length IgG; Clone family 55-g1
For the molecule B5, the “EC50 (read off the curve)” value with human PD-L2 protein was ~0.9 nM; in the assay with PD-L2 on CHO-PD-L2 cells [5], ~0.3 nM. Moreover, the Kd in the assay with Mouse PD-L2-Fc was 21.6 nM; in the assay with Human PD-L2-Fc [3] it was 0.116 nM; with Cyno PD-L2-Fc it was 0.296 nM; with Human PD-L2-HIS it was 0.052 nM. For the same molecule, the “IC50 (Promega PD-1:PD-L2 bioassay, luciferase) [Cont'd]” value with PD-L2 on CHO-PD-L2 cells [7] turned out to be 0.38 nM.

B6: ADI-20816 Fab (Fab, V domains shown)
VH: B5 VH
VL: B5 VL
The molecule B6 came in with a Kd with Human PD-L2-Fc [6] of 0.268 nM.

B7: anti-PD-L2 antibody 16510 (antibody, human IgG1, V domains shown)
VH: B5 VH with L33A, A35S, H54I, V57T, P100Q, Q101K, Y102Q, H103Y, G104T
VL: DIQLTQSPSSLSASVGDRVTITCQASQDISNFLNWYQQKPGKAPKLLIYDASNLETGVPSRFSGSGSGTDFTFTISSLQPEDIATYYCQQLVGAPPTFGGGTKVEIK
As to B7, the “IC50 (read off the curve)” value with PD-L2 on CHO-PD-L2 cells [8] was ~0.006 µg.
